According to patent US20040097713:

Tested on: GST-IRS-1 C-terminus fusion protein containing Ser1101
Sequence (chain, as listed by the source): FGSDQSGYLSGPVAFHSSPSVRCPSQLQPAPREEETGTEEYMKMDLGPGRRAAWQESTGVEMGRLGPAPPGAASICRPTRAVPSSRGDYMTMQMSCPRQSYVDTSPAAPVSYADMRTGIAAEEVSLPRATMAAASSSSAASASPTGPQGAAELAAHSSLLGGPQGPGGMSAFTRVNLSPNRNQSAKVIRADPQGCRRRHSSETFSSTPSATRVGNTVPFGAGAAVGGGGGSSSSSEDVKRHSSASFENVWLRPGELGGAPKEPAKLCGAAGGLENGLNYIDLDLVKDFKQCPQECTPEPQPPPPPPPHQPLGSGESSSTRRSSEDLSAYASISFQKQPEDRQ

Row | Substance | in vitro kinase reaction, phosphorylation at Ser1101 by Western blot
1 | Akt kinase, active | The Akt kinase could not effectively phosphorylate IRS-1 at Ser1101, despite the occurrence of this residue within a putative Akt motif
2 | protein kinase C theta, active, purified | PKC theta is the only PKC isoform that robustly phosphorylated the GST-IRS-1 fusion protein substrate at Ser1101
